Measurements as given in PMC13042608, “Cross‐Platform Biosensing of Immune Receptors Using Peptide‐Functionalized Graphene” (Advanced Science, 2025).
Non-standard residues stand in square brackets, D forms with d. No end group written: not given here.

Molecular target: T1, WKYMVm‐NH2
T1 construct: synthetic hexapeptide agonist of formyl peptide receptors; also called W‐peptide; target peptide; source: synthetic peptide (custom peptide synthesis, purity >95%)
T1 peptide: WKYMV[dM]-NH2
Assay: SPR; graphene-enhanced MP-SPR; peptide immobilised on PBA-graphene by amine coupling; nucleofected HEK293T cells (≈100 cells mL^-1) injected at 10 µL min^-1 for 20 min in C1 buffer pH 7.4; 22 °C
Details: one partner purified

- SPR signal relative to the Control peptide (f-MEQQNK) surface: ~4 fold
B1: Formyl peptide receptor 2 (FPR2) on transfected HEK293T cells (receptor, human, UniProt P25090 1-351, looked up)
chain: METNFSTPLNEYEEVSYESAGYTVLRILPLVVLGVTFVLGVLGNGLVIWVAGFRMTRTVTTICYLNLALADFSFTATLPFLIVSMAMGEKWPFGWFLCKLIHIVVDINLFGSVFLIGFIALDRCICVLHPVWAQNHRTVSLAMKVIVGPWILALVLTLPVFLFLTTVTIPNGDTYCTFNFASWGGTPEERLKVAITMLTARGIIRFVIGFSLPMSIVAICYGLIAAKIHKKGMIKSSRPLRVLTAVVASFFICWFPFQLVALLGTVWLKEMLFYGKYKIIDILVNPTSSLAFFNSCLNPMLYVFVGQDFRERLIHSLPTSLERALSEDSAPTNDTAANSASPPAETELQAM
notes: formyl peptide receptor 2, human, gene amplified from human genomic DNA and cloned into pcDNA3.1(+); also called HEK FPR2; HEK‐FPR2; source: nucleofection with a GFP plasmid for biosensors), on living cells
